Molecular target: native MICU1 (in the native, disulfide-connected MICU1-2 heterodimer) (human (endogenous in HEK 293)) (UniProt Q9BPX6)
UniProt Q9BPX6, sequence (Q9BPX6 34-476, one chain of several): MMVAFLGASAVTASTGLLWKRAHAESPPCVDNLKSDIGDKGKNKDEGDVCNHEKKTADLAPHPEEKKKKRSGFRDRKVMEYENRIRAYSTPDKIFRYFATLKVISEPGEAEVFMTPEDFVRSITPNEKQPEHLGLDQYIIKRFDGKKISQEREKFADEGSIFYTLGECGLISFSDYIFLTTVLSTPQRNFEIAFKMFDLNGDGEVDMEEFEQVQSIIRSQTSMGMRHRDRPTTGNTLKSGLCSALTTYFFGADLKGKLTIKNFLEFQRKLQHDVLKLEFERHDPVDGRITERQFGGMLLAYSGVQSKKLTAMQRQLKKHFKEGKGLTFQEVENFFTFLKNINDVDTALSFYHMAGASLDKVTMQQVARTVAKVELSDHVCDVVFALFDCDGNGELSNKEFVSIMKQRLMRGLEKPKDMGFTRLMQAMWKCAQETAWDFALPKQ

rate of mitochondrial ^45Ca^2+ uptake in low Ca^2+ (0.5 μM), D261A MCU expressed in MCU-KO cells (gating by MICU1 lost) (pmol/min/10^6 cells): 34
Substance: 1D4-tagged human MCU D261A (from UniProt Q8NE86 51-351) (natural protein)

Source: article PMC6347451
